T1: human CD37 (human (Homo sapiens), UniProt P11049 1-281)
T1 construct: Endogenous on Daudi cells, Raji cells and human blood B cells; also called Leukocyte Antigen CD37; GP52-40
T1 sequence: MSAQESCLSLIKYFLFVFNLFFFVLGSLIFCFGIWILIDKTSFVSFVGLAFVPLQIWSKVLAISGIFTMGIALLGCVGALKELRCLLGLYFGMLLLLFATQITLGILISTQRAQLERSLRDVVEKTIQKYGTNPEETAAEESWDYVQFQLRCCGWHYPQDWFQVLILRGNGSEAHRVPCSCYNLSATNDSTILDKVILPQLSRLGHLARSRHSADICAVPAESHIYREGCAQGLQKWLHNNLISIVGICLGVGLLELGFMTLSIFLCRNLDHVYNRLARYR

T2: cynomolgus monkey CD37 (cynomolgus monkey (Macaca fascicularis), UniProt P11049 1-281 (human entry))
T2 construct: also called mfCD37; cynomolgus CD37
T2 chain: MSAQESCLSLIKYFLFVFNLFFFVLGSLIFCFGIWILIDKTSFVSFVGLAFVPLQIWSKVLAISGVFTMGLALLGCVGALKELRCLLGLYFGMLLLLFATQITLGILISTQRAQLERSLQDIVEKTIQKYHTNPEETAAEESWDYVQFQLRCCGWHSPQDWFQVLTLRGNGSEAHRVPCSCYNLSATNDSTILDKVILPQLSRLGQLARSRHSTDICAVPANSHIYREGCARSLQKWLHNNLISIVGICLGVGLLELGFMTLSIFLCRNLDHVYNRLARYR


What was measured:
human CD37 = target: T1, human CD37; assay: flow cytometry on Daudi cells
Protocol: (§1) Binding to cell surface expressed CD37 (Daudi cells, CHO cells expressing cynomolgus CD37) was determined by flow cytometry. Cells, resuspended in RPMI containing 0.2% BSA, were seeded at 100,000 cells/well in polystyrene 96 well round-bottom plates (Greiner bio-one Cat #650101) and centrifuged for 3 minutes at 300×g, 4° C. Serial dilutions (0.003-10 μg/mL final antibody concentration in 3.33× serial dilutions) of CD37 or control antibodies were added and cells were incubated for 30 minutes at 4° C. Plates were washed/centrifuged twice using FACS buffer (PBS/0.1% BSA/0.01% Na-Azide). Next, cells were incubated for 30 minutes at 4° C. with R-Phycoerythrin (PE)-conjugated goat-anti-human IgG F(ab′)2 (Jackson ImmunoResearch Laboratories, Inc., West Grove, PA; cat #: 109-116-098) diluted 1/100 in PBS/0.1% BSA/0.01% Na-Azide. Cells were washed/centrifuged twice using FACS buffer, resuspended in 30 μL FACS buffer and analyzed by determining mean fluorescent intensities using an Intellicyt iQue™ screener (Westburg). Binding curves were generated using non-linear regression (sigmoidal dose-response with variable slope) analyses within GraphPad Prism V6.04 software (GraphPad Software, Sand Diego, CA, USA).

cynomolgus monkey CD37 = target: T2, cynomolgus monkey CD37; assay: flow cytometry on CHO cells expressing cynomolgus monkey CD37
Protocol: as §1
Binding to CHO cells expressing cynomolgus monkey CD37 was determined by flow cytometry using a method as described above.

Row | Binder | binding result (human CD37) | binding result (cynomolgus monkey CD37)
1 | IgG1-010-H5L2 (antibody, Humanized, IgG1,kappa) heavy: not shown light: AYDMTQSPSTLSASVGDRVTITCQASQNIIDYLAWYQQKPGKAPKLLIHKASTLASGVPSRFKGSGSGTEFTLTISSLQPDDFATYYCQQGYSNSNIDNTFGGGTKVEIKRTVAAPSVFIFPPSDEQLKSGTASVVCLLNNFYPREAKVQWKVDNALQSGNSQESVTEQDSKDSTYSLSSTLTLSKADYEKHKVYACEVTHQGLSSPVTKSFNRGEC | binds | 
2 | IgG1-010-H5L2-E430G (antibody, IgG1,kappa with E430G) heavy: not shown light: AYDMTQSPSTLSASVGDRVTITCQASQNIIDYLAWYQQKPGKAPKLLIHKASTLASGVPSRFKGSGSGTEFTLTISSLQPDDFATYYCQQGYSNSNIDNTFGGGTKVEIKRTVAAPSVFIFPPSDEQLKSGTASVVCLLNNFYPREAKVQWKVDNALQSGNSQESVTEQDSKDSTYSLSSTLTLSKADYEKHKVYACEVTHQGLSSPVTKSFNRGEC | binds | binds
3 | IgG1-005-H1L2-E430G (antibody, IgG1,kappa with E430G) heavy: not shown light: AYDMTQSPSSVSASVGDRVTITCQASQSISNWLAWYQQKPGKAPKQLIYAASTLASGVPSRFKGSGSGTDFTLTISSLQPEDFATYYCQQGYSNSNIDNTFGGGTKVEIKRTVAAPSVFIFPPSDEQLKSGTASVVCLLNNFYPREAKVQWKVDNALQSGNSQESVTEQDSKDSTYSLSSTLTLSKADYEKHKVYACEVTHQGLSSPVTKSFNRGEC | binds | binds
4 | IgG1-005-H1L2-K409R-E430G (antibody, IgG1,kappa with K409R and E430G) heavy: not shown light: AYDMTQSPSSVSASVGDRVTITCQASQSISNWLAWYQQKPGKAPKQLIYAASTLASGVPSRFKGSGSGTDFTLTISSLQPEDFATYYCQQGYSNSNIDNTFGGGTKVEIKRTVAAPSVFIFPPSDEQLKSGTASVVCLLNNFYPREAKVQWKVDNALQSGNSQESVTEQDSKDSTYSLSSTLTLSKADYEKHKVYACEVTHQGLSSPVTKSFNRGEC | binds | 
5 | IgG1-005-H1L2 (antibody, Humanized, IgG1,kappa) heavy: not shown light: AYDMTQSPSSVSASVGDRVTITCQASQSISNWLAWYQQKPGKAPKQLIYAASTLASGVPSRFKGSGSGTDFTLTISSLQPEDFATYYCQQGYSNSNIDNTFGGGTKVEIKRTVAAPSVFIFPPSDEQLKSGTASVVCLLNNFYPREAKVQWKVDNALQSGNSQESVTEQDSKDSTYSLSSTLTLSKADYEKHKVYACEVTHQGLSSPVTKSFNRGEC | binds | 
6 | IgG1-016-H5L2-E430G (antibody, IgG1,kappa with E430G) heavy: not shown light: DVVMTQSPSTLSASVGDRVTITCQASQNIDSNLAWYQQKPGKAPKFLIYYASNLPFGVPSRFKGSGSGTEFTLTISSLQPDDFATYYCQCADVGSTYVAAFGGGTKVEIKRTVAAPSVFIFPPSDEQLKSGTASVVCLLNNFYPREAKVQWKVDNALQSGNSQESVTEQDSKDSTYSLSSTLTLSKADYEKHKVYACEVTHQGLSSPVTKSFNRGEC | binds | binds
7 | IgG1-016-H5L2-F405L-E430G (antibody, IgG1,kappa with F405L and E430G) heavy: not shown light: DVVMTQSPSTLSASVGDRVTITCQASQNIDSNLAWYQQKPGKAPKFLIYYASNLPFGVPSRFKGSGSGTEFTLTISSLQPDDFATYYCQCADVGSTYVAAFGGGTKVEIKRTVAAPSVFIFPPSDEQLKSGTASVVCLLNNFYPREAKVQWKVDNALQSGNSQESVTEQDSKDSTYSLSSTLTLSKADYEKHKVYACEVTHQGLSSPVTKSFNRGEC | binds | 
8 | IgG1-016-H5L2 (antibody, Humanized, IgG1,kappa) heavy: not shown light: DVVMTQSPSTLSASVGDRVTITCQASQNIDSNLAWYQQKPGKAPKFLIYYASNLPFGVPSRFKGSGSGTEFTLTISSLQPDDFATYYCQCADVGSTYVAAFGGGTKVEIKRTVAAPSVFIFPPSDEQLKSGTASVVCLLNNFYPREAKVQWKVDNALQSGNSQESVTEQDSKDSTYSLSSTLTLSKADYEKHKVYACEVTHQGLSSPVTKSFNRGEC | binds | 
9 | IgG1-016-H5L2-LC90S-F405L-E430G (antibody, V domains shown, light chain carries C90S; also called D1; IgG1-3009-016-H5L2-F405L-E430G-LC90S) VH: EVQLVESGGGLVQPGGSLRLSCAASGFSLSNYNMGWVRQAPGKGLEWVSVIDASGTTYYATWAKGRFTISRDNSKNTLYLQMNSLRAEDTATYYCARELLYFGSSYYDLWGQGTLVTVSS VL: DVVMTQSPSTLSASVGDRVTITCQASQNIDSNLAWYQQKPGKAPKFLIYYASNLPFGVPSRFKGSGSGTEFTLTISSLQPDDFATYYCQSADVGSTYVAAFGGGTKVEIKR | binds | 
10 | IgG1-37.3 (antibody, IgG1,kappa) heavy: not shown light: DIQMTQSPASLSVSVGETVTITCRASENIRSNLAWYQQKQGKSPQLLVNVATNLADGVPSRFSGSGSGTQYSLKINSLQSEDFGTYYCQHYWGTTWTFGGGTKLEIKRTVAAPSVFIFPPSDEQLKSGTASVVCLLNNFYPREAKVQWKVDNALQSGNSQESVTEQDSKDSTYSLSSTLTLSKADYEKHKVYACEVTHQGLSSPVTKSFNRGEC | binds | 
11 | IgG1-37.3-E430G (antibody, IgG1,kappa with E430G) heavy: not shown light: DIQMTQSPASLSVSVGETVTITCRASENIRSNLAWYQQKQGKSPQLLVNVATNLADGVPSRFSGSGSGTQYSLKINSLQSEDFGTYYCQHYWGTTWTFGGGTKLEIKRTVAAPSVFIFPPSDEQLKSGTASVVCLLNNFYPREAKVQWKVDNALQSGNSQESVTEQDSKDSTYSLSSTLTLSKADYEKHKVYACEVTHQGLSSPVTKSFNRGEC | binds | 
12 | IgG1-G28.1 (antibody, IgG1,kappa) heavy: not shown light: DIQMTQSPASLSASVGETVTITCRTSENVYSYLAWYQQKQGKSPQLLVSFAKTLAEGVPSRFSGSGSGTQFSLKISSLQPEDSGSYFCQHHSDNPWTFGGGTELEIKRTVAAPSVFIFPPSDEQLKSGTASVVCLLNNFYPREAKVQWKVDNALQSGNSQESVTEQDSKDSTYSLSSTLTLSKADYEKHKVYACEVTHQGLSSPVTKSFNRGEC | binds | no binding (tested: 0.003-10 µg/mL)
13 | IgG1-G28.1-E430G (antibody, IgG1,kappa with E430G) heavy: not shown light: DIQMTQSPASLSASVGETVTITCRTSENVYSYLAWYQQKQGKSPQLLVSFAKTLAEGVPSRFSGSGSGTQFSLKISSLQPEDSGSYFCQHHSDNPWTFGGGTELEIKRTVAAPSVFIFPPSDEQLKSGTASVVCLLNNFYPREAKVQWKVDNALQSGNSQESVTEQDSKDSTYSLSSTLTLSKADYEKHKVYACEVTHQGLSSPVTKSFNRGEC | binds | no binding (tested: 0.003-10 µg/mL)
14 | IgG1-004-H5L2 (antibody) heavy: not shown light: AQVLTQSPSPLSASVGDRVTITCQASQSVYNSQNLAWYQQKPGKAPKLLIYEASKLASGVPSRFKGSGSGTEFTLTISSLQPDDFATYYCQGEFSCISADCTAFGGGTKVEIKRTVAAPSVFIFPPSDEQLKSGTASVVCLLNNFYPREAKVQWKVDNALQSGNSQESVTEQDSKDSTYSLSSTLTLSKADYEKHKVYACEVTHQGLSSPVTKSFNRGEC | binds | 
15 | IgG1-004-H5L2-E430G (antibody, IgG1,kappa with E430G (EU numbering)) heavy: not shown light: AQVLTQSPSPLSASVGDRVTITCQASQSVYNSQNLAWYQQKPGKAPKLLIYEASKLASGVPSRFKGSGSGTEFTLTISSLQPDDFATYYCQGEFSCISADCTAFGGGTKVEIKRTVAAPSVFIFPPSDEQLKSGTASVVCLLNNFYPREAKVQWKVDNALQSGNSQESVTEQDSKDSTYSLSSTLTLSKADYEKHKVYACEVTHQGLSSPVTKSFNRGEC | binds | binds

From patent US20240252635A1 (Genmab, published 2024)
